The values below come from US20020177203A1 (published 2002).

This assay has as its target T1, mouse α2 subunit of prolyl 4-hydroxylase (mouse, UniProt Q60716 20-537).
T1 construct: Recombinant, made in Sf9 insect cells with a baculovirus; also called α(2) subunit of mouse prolyl 4-hydroxylase; α2 polypeptide
Put plainly: coexpression in insect cells; nondenaturing PAGE and Western blot. On the procedure: A recombinant baculovirus coding for the mouse α2 subunit was generated and used to infect S. frugiperda insect cells with or without the human PDI/β subunit, wherein the insect cells were infected at a multiplicity of 5. For production of an enzyme tetramer, the human α59 1 (see, Vuori, et al., supra) or mouse α2 viruses and the PDI/β viruses (id.) were used in a 1:1 or 2:1 ratio. The cells were harvested 72 hours after infection, homogenized in 0.01 M tris, pH 7.8/0.1 M NaCl/0.1 M glycine/10 μM dithiothreitol/0.1% Triton X-100, and centrifuged. The resulting supematants were analyzed by SDS/8% PAGE or nondenaturing 7.5% PAGE and assayed for enzyme activities.

T1 sequence (Q60716 20-537): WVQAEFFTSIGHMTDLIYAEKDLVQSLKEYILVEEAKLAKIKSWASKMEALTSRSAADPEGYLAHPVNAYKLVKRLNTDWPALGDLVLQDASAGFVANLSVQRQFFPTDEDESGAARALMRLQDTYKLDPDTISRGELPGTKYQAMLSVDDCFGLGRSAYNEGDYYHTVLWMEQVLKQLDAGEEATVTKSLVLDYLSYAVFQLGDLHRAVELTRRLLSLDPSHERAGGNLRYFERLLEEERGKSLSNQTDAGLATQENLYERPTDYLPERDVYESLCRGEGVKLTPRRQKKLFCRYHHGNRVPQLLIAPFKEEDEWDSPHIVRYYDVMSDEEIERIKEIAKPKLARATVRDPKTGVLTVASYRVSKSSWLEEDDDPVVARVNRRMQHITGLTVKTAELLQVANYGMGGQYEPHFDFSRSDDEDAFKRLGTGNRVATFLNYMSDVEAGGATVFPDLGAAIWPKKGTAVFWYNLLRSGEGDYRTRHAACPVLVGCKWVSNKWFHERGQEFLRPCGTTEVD

B1: human PDI/β subunit of prolyl 4-hydroxylase (protein disulfide-isomerase) (enzyme)
chain: not shown
notes: Made in Sf9 insect cells with a recombinant baculovirus (Vuori et al.); also called human β subunit
Regarding B1, the binding result is “binds”.
